Assay results: US20040072256A1

What was measured:
[1] = target: hemagglutinin (HA) of Influenza virus A/PR/8/34 (H1N1) (Influenza virus A/PR/8/34 (H1N1)) (UniProt P03452); experiment: flow cytometry on IV-infected 1106mel cells pre-incubated with NA2-1C1 (anti-NA, blocks neuraminidase activity)
[2] = target: hemagglutinin-neuraminidase (HN) glycoprotein of Sendai virus (Sendai virus); experiment: flow cytometry on SV-infected 721.221 cells pre-incubated with competitor 135.7 (anti-HN)
[3] = target: hemagglutinin-neuraminidase (HN) glycoprotein of Sendai virus (Sendai virus); experiment: flow cytometry on SV-infected 721.221 cells, no mAb
[4] = target: hemagglutinin-neuraminidase (HN) glycoprotein of Sendai virus (Sendai virus); experiment: flow cytometry, 293T cells transfected with Sendai HN cDNA vs mock
[5] = target: hemagglutinin (HA) of Influenza virus A/PR/8/34 (H1N1) (Influenza virus A/PR/8/34 (H1N1)) (UniProt P03452); experiment: flow cytometry on IV-infected 1106mel cells, no mAb
[6] = target: hemagglutinin (HA) of Influenza virus A/PR/8/34 (H1N1) (Influenza virus A/PR/8/34 (H1N1)) (UniProt P03452); experiment: flow cytometry, IV-infected vs uninfected 1106mel cells
[7] = target: hemagglutinin-neuraminidase (HN) glycoprotein of Sendai virus (Sendai virus); experiment: flow cytometry on SV-infected 721.221 cells pre-incubated with competitor TC-1D6 (anti-HN)
[8] = target: hemagglutinin-neuraminidase (HN) glycoprotein of Sendai virus (Sendai virus); experiment: flow cytometry on SV-infected 721.221 cells pre-incubated with competitor TC-9C1 (anti-HN)
[9] = target: hemagglutinin (HA) of Influenza virus A/PR/8/34 (H1N1) (Influenza virus A/PR/8/34 (H1N1)) (UniProt P03452); experiment: cell-based or functional assay
[10] = target: hemagglutinin-neuraminidase (HN) glycoprotein of Sendai virus (Sendai virus); experiment: flow cytometry, SV-infected vs uninfected 721.221 cells
[11] = target: hemagglutinin (HA) of Influenza virus A/PR/8/34 (H1N1) (Influenza virus A/PR/8/34 (H1N1)) (UniProt P03452); experiment: flow cytometry on IV-infected 1106mel cells pre-incubated with competitor H17-L2 (anti-HA)
[12] = target: hemagglutinin-neuraminidase (HN) glycoprotein of Sendai virus (Sendai virus); experiment: flow cytometry on SV-infected 721.221 cells pre-incubated with competitor TC-9A1 (anti-F)
[13] = target: hemagglutinin (HA) of Influenza virus A/PR/8/34 (H1N1) (Influenza virus A/PR/8/34 (H1N1)) (UniProt P03452); experiment: flow cytometry on IV-infected 1106mel cells pre-incubated with competitor H28-E23 (anti-HA)
[14] = target: hemagglutinin-neuraminidase (HN) glycoprotein of Sendai virus (Sendai virus); experiment: cell-based or functional assay

Substance	MFI NKp46-Ig binding [1] [MFI]	MFI NKp46-Ig binding [2] [MFI]	MFI NKp46-Ig binding [3] [MFI]	fold increase in staining on HN transfection [4] [fold]	MFI NKp46-Ig binding [5] [MFI]	fold increase in binding on IV infection [6] [fold]	MFI NKp46-Ig binding [7] [MFI]	MFI NKp46-Ig binding [8] [MFI]	hemagglutination inhibition (IV-mediated agglutination of sheep erythrocytes) [9] [µM]	fold increase in staining on SV infection [10] [fold]	MFI NKp46-Ig binding [11] [MFI]	MFI NKp46-Ig binding [12] [MFI]	MFI NKp46-Ig binding [13] [MFI]	lysis of HN-transfected 293T cells by NK line NK-GAL (35S-release) [14] [fold]
NKp46-Ig fusion protein (Fc fusion)	980	22	74	2	441	4	14	18	2	10	145	63	63	
NKp46 receptor on NK cells (from UniProt O76036 22-304)														> 4
